The results in this text go back to US20200332015A1 (NAMAB THERAPEUTICS, published 2020).

In experiment [1] the target is T1, human Fc-tagged OX40 (Acro-Biosystems, cat. OXO-H5255) (human, UniProt P43489 29-216, limits assumed).
T1 construct: also called human OX40
T1 sequence (looked up): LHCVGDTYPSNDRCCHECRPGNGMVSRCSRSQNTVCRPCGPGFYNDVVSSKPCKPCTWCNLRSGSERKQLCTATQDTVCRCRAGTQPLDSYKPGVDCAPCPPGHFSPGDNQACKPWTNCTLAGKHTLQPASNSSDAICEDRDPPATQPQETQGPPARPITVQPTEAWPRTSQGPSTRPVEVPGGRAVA
As to the kind of experiment: SPR T200, Fc-tagged OX40 captured, scFv analyte. The procedure:
(§1) In addition to cross-reactivity to cynomolgus monkey CD137, selectivity of binding of the anti-human CD137 scFvs to human CD137 and not to other members of the TNFR superfamily, such as CD40 and OX40, is desired. Therefore, binding of selected scFvs to human CD40 and OX40 was tested. Binding of scFvs to human Fc-tagged CD40 (AcroBiosystems, cat. CDO-H5253) and human Fc-tagged OX40 (Acro-Biosystems, cat. OXO-H5255) was determined by SPR analysis on a T200 device (Biacore, GE Healthcare). In this experiment, Fc-tagged CD40 and OX40 were captured using the Human Antibody Capture kit from GE healthcare (cat. BR-1008-39). After each analyte injection cycle, the anti-human Fc-specific IgG was regenerated and new antigen was captured. The scFvs were injected as analyte using a high concentration of 180 nM of the analyte diluted in running buffer. Association and dissociation time were set to 300 s and 720 s, respectively. Obtained sensorgrams were fitted using the 1:1 binding model.

The target in experiment [2] is T2, cynomolgus monkey Fc-tagged CD137 (R&D Systems, cat. 9324-4B-100) (cynomolgus monkey, UniProt A9YYE7 24-186).
T2 construct: also called cynomolgus CD137-Fc chimeric protein
As to the kind of experiment: SPR T200, Fc-tagged antigen captured, scFv analyte. The procedure: (§2) Affinity of the humanized scFvs to human CD137 was determined by SPR analysis on a T200 device (Biacore, GE Healthcare). […] After each analyte injection cycle, the anti-human Fc-specific IgG was regenerated and new antigen was captured. The scFvs were injected as analyte using a dose response multi-cycle kinetic assay over the captured CD137 with concentrations of the analyte ranging from 0.19 to 45 nM (three-fold dilutions steps) diluted in running buffer. Association and dissociation time were set to 300 s and 720 s, respectively. Obtained sensorgrams were fitted using the 1:1 binding model.
Cross-reactivity to cynomolgus CD137 was measured with cynomolgus monkey Fc-tagged CD137 (R&D Systems, cat. 9324-4B-100) in a similar assay as used to measure binding to human CD137.

Experiment [3] concerns the target T3, human CD137 expressed on Jurkat cells (human, UniProt Q07011 24-255).
T3 construct: Also used here for CD137 on T cells of human PBMC in the IL-2 assays; also called Jurkat CD137 cells (clone C6, 1); membranous CD137
As to the kind of experiment: flow cytometry on CD137 expressing Jurkat cells. The procedure: (§3) Binding potency affinity to human CD137 expressing cells was also determined for selected scFvs. 50,000 CD137 expressing Jurkat cells (or as reference cell line Jurkat NFAT) were distributed to round bottom non-tissue culture treated 96 well plates. Cells were washed twice with 100 μl PBS by centrifugation at 400×g for 5 min. […] After 1 h incubation at 4° C. on a nutating mixer, cells were washed 3 times with 100 μl staining buffer and centrifugation steps of 5 min at 400×g. […] Plates were incubated 1 h at 4° C. on a nutating mixer, then washed 3 times with 100 μl of staining buffer and resuspended in a final volume of 50 μl of staining buffer. Finally, APC signal of 20,000 events per well was analyzed by flow cytometry using a Novocyte flow cytometer system (ACEA Bioscience).

The target in experiment [4] is T4, human Fc-tagged CD40 (AcroBiosystems, cat. CDO-H5253) (human, UniProt P25942 21-193).
T4 construct: also called human CD40
The experiment can be described thus: SPR T200, Fc-tagged CD40 captured, scFv analyte. The procedure: as §1

Experiment [5] has as its target T5, mouse Fc-tagged mouse CD137 (R&D Systems, cat. 937-4B-050) (mouse, UniProt P20334 24-187).
T5 construct: also called mouse CD137-Fc chimeric protein
T5 sequence (looked up): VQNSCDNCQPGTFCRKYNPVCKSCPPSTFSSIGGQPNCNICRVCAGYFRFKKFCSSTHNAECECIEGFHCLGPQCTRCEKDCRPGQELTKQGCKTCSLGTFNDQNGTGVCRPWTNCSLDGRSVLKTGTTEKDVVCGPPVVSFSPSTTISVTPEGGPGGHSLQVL
As to the kind of experiment: SPR T200, Fc-tagged antigen captured, scFv analyte.

Experiment [6] deals with T6, Fc tagged human CD137 (R&D Systems, cat. 838-4B-100) (human, UniProt Q07011 24-186).
T6 construct: also called CD137 Fc chimera; human CD137-Fc chimeric protein
As to the kind of experiment: SPR T200, Fc-tagged antigen captured, scFv analyte. The procedure: as §2

Experiment [7] concerns the target T3, human CD137 expressed on Jurkat cells. As to the kind of experiment: flow cytometry on CD137 expressing Jurkat cells, protein L-APC. The procedure:
as §3

T2 sequence (A9YYE7 entry or part of it): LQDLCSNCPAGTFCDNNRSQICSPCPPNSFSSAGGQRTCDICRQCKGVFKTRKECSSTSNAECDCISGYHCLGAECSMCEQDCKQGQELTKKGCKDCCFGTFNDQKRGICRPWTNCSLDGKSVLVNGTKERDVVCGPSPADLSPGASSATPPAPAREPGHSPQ
T4 sequence (P25942 21-193 limits assumed): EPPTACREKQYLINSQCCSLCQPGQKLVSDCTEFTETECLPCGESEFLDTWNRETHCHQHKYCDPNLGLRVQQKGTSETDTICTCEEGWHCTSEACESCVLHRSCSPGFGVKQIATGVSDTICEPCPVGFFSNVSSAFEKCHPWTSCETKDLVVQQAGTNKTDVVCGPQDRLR

B1: PRO1352 (38-02-A04 sc13, CDR graft with interdomain disulfide, VH3, scFv) (scFv)
scFv: DIQMTQSPSSLSASVGDRVTITCQASQSINNVLAWYQQKPGKAPKLLIYRASTLASGVPSRFSGSGSGTDFTLTISSLQPEDFATYYCQSSYGNYGDFGCGTKVTVLGGGGGSGGGGSGGGGSGGGGSEVQLVESGGGLVQPGGSLRLSCAASGFSFSNSYWICWVRQAPGKCLEWIGCTFVGSSDSTYYANWAKGRFTISRDNSKNTVYLQMNSLRAEDTAVYYCARHPSDAVYGYANNLWGQGTLVTVSS
notes: VL-linker-VH; carries VH G51C and VL T141C (AHo numbering); also called the scFv based on 38-02-A04 clone
On to B1, for which, in experiment [1], the binding result was “no binding (tested: 180 nM)”. In experiment [2], this molecule came in with a Kd of 1.47 nM, a koff of 0.00102 s⁻¹ and a kon of 695000 M⁻¹ s⁻¹. In experiment [3], the “Maximum binding (relative to urelumab)” value was determined as 10% and the “rel. EC50 (EC50, urelumab/EC50, scFv)” value was determined as 0.057 ratio. Also, the binding result in experiment [4] is on record as “no binding (tested: 180 nM)”. Moreover, the binding result in experiment [5] is recorded as “no binding”. For the same molecule, in experiment [6], the Kd is 1.47 nM, the koff came out at 0.00103 s⁻¹ and the kon turned out to be 701000 M⁻¹ s⁻¹. For the same molecule, in experiment [7], it took 1.1 µg/mL to reach a half-maximal effect (EC50).
